We go through one substance from paper PMC11621151.

What is called Kd is a measure of binding affinity in units of concentration.

Holding throughout (assay): SPR
A general note: Surface plasmon resonance follows binding to a sensor surface in real time, without labels.

The target of experiment [1] is human neonatal Fc receptor (FcRn) (human) (UniProt P55899).
Experiment [2] has as its target monkey neonatal Fc receptor (FcRn) (monkey) (UniProt Q8SPV9).
Experiment [3] deals with mouse neonatal Fc receptor (FcRn) (mouse) (UniProt Q61559).
For experiment [4], the target named is rabbit neonatal Fc receptor (FcRn) (rabbit).
In experiment [5] the target is rat neonatal Fc receptor (FcRn) (rat) (UniProt P13599).

As for Efgartigimod (domain or fragment), the Kd amounted to 8.56 nM in experiment [1]; 14.5 nM in experiment [2]; 0.63 nM in experiment [3]; 310 nM in experiment [4]; 1.89 nM in experiment [5].
